Numbering of substitutions follows the chain as printed. *1 amine or outer side, *2 acyl side, *3 side chain or, on linkers, in order; H or OH if unused. Bridges are numbered along the chain shown (N, C = ends). Where no end group is shown, it is not given here. [ ]: non-standard residue; d: D form. TATA = O=C(CC[*:1])N1CN(C(=O)CC[*:2])CN(C(=O)CC[*:3])C1; Phe(2-Me) = Cc1ccccc1C[C@H](N)C(=O)O

Assay [1] concerns the target T1, Human TREM2 extracellular domain (ECD), residues 19-131, C-terminally biotinylated, glycosylated (human, UniProt Q9NZC2 19-131, C-terminally biotinylated; glycosylated).
T1 construct: range 19-131; loaded on Superstreptavidin biosensors; also called Human BLI glycosylated
T1 sequence (looked up): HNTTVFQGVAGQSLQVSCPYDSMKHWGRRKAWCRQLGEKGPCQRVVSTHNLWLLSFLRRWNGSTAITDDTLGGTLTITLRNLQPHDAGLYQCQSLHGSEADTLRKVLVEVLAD
As to the kind of experiment: BLI steady state, glycosylated human TREM2 ECD on sensor. Here is the method: (§1) Bio-layer interferometry was performed on an Octet RED384® system (Sartorius) at 25° C. in a buffer containing 50 mM HEPES (pH 7.5), 150 mM NaCl and 0.1% Tween. […] Reference wells containing no bicycle peptides and reference sensors loaded with an unrelated protein (His-tagged MLLT3a) were subjected to the same assay protocol and double reference subtraction was used for processing to account for non-specific binding. Traces were analysed using Octet Software (Version 11.0). Association and dissociation curves were globally fit and the response at equilibrium (Req) plotted against concentration to obtain steady-state KD values.

The target of assay [2] is T2, Human TREM2 extracellular domain (ECD), residues 19-131, C-terminally biotinylated, deglycosylated (human, UniProt Q9NZC2 19-131, C-terminally biotinylated; deglycosylated).
T2 construct: range 19-131; loaded on Superstreptavidin biosensors; also called triggering receptor expressed on myeloid cells 2; Human BLI (deglycosylated)
T2 sequence (looked up): T1 sequence (looked up)
As to the kind of experiment: BLI steady state, deglycosylated human TREM2 ECD on sensor. Here is the method:
as §1

Another assay addresses T3, Cyno TREM2 (Cyno, UniProt A0A2K5UY34 49-161).
T3 construct: range 19-131; also called Cyno BLI
T3 sequence: T1 sequence (looked up) with A10E, W60R, L89F
The assay can be described thus: BLI steady state, cyno TREM2 on sensor. How it is done:
as §1

Assay [3] deals with T2, Human TREM2 extracellular domain (ECD), …. The assay can be described thus: Bio-layer interferometry (Octet), direct binding: biotinylated human TREM2 ECD loaded on Superstreptavidin biosensors, peptide in solution at 0.195 to 12.5 µM (7 traces). How it is done: as §1
Assay [4] concerns the target T4, TREM2 on human iPSC macrophages (human, UniProt Q9NZC2 19-230).
T4 sequence (looked up): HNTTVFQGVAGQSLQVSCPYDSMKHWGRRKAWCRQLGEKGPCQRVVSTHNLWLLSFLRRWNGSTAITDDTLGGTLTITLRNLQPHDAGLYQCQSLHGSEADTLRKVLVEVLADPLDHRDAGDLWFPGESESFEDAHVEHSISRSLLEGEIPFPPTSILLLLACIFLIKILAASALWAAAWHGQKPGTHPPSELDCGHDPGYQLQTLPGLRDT
The assay can be described thus: cell-based or functional assay.

B1: BCY20066 (peptide)
peptide: CSEYCFWXFYHC
modifications: N-terminal acetyl (Ac); CiSEYCiiFW[44DFP]FYHCiii; Ci, Cii, Ciii on TATA scaffold
Consider B1, for which the equilibrium dissociation constant (Kd) worked out at 0.98 µM in assay [1] and 1.86 µM in assay [2].

B2: BCY16054 (peptide)
peptide: ACSEYCFWPFYHCA
modifications: linker 2-6-13 via TATA
Consider B2, for which the Kd in the assay with Cyno TREM2 stood at 3.3 µM; in assay [3], 0.68 µM; in assay [2], 0.7 µM. Moreover, the “pSYK (µM)” value in assay [4] came to 10.7 µM.

B3: BCY20075 (peptide)
peptide: CSEYCFWPXYHC
modifications: N-terminal acetyl (Ac); CiSEYCiiFWP[44BPA]YHCiii; Ci, Cii, Ciii on TATA scaffold
Consider B3, for which the Kd in assay [1] was 1.51 µM; in assay [2] it was 2.4 µM.

B4: BCY20060 (peptide)
peptide: CSEYCFXPFYHC
modifications: N-terminal acetyl (Ac); CiSEYCiiF[6MeTrp]PFYHCiii; Ci, Cii, Ciii on TATA scaffold
With B4, the Kd in assay [1] stood at 1.11 µM; in assay [2], 1.39 µM.

B5: BCY20063 (peptide)
peptide: Ac-CSEYCF[Phe(2-Me)]PFYHC
modifications: linker 1-5-12 via TATA
As for B5, the Kd was determined as 1.58 µM in assay [1] and 1.3 µM in assay [2].

B6: BCY20073 (peptide)
peptide: CSEYCFWPXYHC
modifications: N-terminal acetyl (Ac); CiSEYCiiFWP[4FPhe]YHCiii; Ci, Cii, Ciii on TATA scaffold
For the molecule B6, the Kd amounted to 2.13 µM in assay [1] and 2.32 µM in assay [2].

B7: BCY20071 (peptide)
peptide: CSEYCFWPXYHC
modifications: N-terminal acetyl (Ac); CiSEYCiiFWP[2MePhe]YHCiii; Ci, Cii, Ciii on TATA scaffold
As to B7, the results for the Kd in assay [1] and in assay [2] were 0.78 µM and 0.91 µM, respectively.
